Assay results published in PMC13193388 (2025).

B1: N34 peptide (peptide)
peptide: EKYCADHFADGR
B2: control peptide (EKYGGGHFADGR) (peptide)
chain: EKYGGGHFADGR

Molecular target: purified recombinant HIS epitope-tagged NOTCH3 extracellular domain (human, UniProt Q9UM47 40-1643, glycosylated)
Assay: SPR

Sequence of purified recombinant HIS epitope-tagged NOTCH3 extracellular domain (Q9UM47 40-1643): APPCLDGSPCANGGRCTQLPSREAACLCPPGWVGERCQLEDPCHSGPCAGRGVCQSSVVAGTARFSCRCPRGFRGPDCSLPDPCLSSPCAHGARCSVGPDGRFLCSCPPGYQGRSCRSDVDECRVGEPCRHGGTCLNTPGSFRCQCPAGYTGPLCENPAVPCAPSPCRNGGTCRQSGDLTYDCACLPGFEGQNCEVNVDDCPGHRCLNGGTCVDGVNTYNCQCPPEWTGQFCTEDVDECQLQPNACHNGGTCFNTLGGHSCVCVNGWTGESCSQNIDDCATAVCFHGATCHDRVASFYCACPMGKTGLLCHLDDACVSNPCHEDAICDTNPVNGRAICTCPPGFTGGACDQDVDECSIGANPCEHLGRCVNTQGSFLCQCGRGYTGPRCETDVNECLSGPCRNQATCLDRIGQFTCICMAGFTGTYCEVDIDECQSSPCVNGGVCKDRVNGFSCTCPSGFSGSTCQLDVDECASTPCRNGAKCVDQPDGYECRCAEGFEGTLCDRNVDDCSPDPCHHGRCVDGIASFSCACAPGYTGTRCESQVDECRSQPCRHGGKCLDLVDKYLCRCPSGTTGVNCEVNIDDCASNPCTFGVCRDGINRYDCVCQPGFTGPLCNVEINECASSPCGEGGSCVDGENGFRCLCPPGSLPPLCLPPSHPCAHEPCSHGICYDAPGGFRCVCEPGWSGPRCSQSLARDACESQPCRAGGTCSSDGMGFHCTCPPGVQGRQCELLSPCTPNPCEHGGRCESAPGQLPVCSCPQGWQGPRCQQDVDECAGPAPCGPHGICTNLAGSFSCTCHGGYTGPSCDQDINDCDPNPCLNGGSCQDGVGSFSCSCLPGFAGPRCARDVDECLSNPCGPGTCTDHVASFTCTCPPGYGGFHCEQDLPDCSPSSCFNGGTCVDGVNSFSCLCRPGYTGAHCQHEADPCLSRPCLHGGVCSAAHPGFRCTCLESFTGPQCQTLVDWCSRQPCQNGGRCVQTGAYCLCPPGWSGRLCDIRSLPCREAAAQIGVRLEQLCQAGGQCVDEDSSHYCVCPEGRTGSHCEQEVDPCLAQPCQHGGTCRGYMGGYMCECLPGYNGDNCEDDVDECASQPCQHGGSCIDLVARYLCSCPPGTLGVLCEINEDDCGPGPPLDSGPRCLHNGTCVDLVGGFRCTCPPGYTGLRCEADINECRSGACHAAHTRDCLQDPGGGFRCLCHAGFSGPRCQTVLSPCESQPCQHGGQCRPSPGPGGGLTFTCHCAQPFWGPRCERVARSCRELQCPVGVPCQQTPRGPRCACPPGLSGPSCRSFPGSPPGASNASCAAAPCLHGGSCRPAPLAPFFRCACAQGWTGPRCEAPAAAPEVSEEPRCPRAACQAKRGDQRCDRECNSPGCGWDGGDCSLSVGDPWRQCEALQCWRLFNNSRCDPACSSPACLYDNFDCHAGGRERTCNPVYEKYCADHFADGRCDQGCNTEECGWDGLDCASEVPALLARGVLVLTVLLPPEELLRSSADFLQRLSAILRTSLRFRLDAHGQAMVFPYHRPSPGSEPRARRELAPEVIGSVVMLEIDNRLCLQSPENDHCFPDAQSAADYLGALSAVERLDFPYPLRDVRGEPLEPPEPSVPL

| Binder | Kd [µM] |
| --- | --- |
| B1 | 0.0131 |
| B2 | 1.18 |
